Data reported in publication PMC2965030.

How the values were obtained:
[1] = biological target: Glu-plasminogen (Homo sapiens) (UniProt P00747); conditions: cited from earlier work
[2] = biological target: β2-glycoprotein I (human) (UniProt P02749); experiment: optical biosensor
Sequence of β2-glycoprotein I (human) (P02749 20-345): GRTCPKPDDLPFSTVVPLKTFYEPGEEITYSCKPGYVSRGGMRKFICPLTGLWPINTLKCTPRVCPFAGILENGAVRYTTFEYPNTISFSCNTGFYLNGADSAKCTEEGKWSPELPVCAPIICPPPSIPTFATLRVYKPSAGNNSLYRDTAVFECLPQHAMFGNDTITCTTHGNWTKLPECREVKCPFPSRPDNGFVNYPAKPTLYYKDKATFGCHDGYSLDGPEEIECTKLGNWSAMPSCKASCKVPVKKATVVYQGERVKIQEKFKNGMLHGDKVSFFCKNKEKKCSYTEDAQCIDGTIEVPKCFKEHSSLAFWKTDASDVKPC

Sequence of Glu-plasminogen (Homo sapiens) (P00747 20-810): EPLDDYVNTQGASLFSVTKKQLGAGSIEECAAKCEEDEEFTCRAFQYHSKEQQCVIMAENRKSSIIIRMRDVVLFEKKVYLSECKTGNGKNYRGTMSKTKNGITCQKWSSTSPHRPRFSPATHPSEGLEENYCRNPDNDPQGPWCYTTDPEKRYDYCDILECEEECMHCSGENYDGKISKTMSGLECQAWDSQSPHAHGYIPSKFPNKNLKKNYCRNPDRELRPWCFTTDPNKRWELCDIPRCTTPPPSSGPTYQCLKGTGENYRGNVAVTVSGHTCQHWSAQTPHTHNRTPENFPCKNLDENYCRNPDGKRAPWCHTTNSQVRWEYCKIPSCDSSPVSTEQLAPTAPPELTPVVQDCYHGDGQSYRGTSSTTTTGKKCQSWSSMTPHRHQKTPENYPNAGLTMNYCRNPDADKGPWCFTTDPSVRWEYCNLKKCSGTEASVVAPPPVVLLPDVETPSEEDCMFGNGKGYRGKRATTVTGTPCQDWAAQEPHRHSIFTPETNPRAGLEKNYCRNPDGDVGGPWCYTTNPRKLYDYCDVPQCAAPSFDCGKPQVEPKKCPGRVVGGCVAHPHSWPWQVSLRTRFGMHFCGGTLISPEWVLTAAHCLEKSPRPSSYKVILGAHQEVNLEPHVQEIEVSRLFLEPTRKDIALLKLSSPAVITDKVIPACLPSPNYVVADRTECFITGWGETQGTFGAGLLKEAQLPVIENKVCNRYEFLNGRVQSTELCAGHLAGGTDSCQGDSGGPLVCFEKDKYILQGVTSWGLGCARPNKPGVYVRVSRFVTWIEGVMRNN
Sequence of β2-glycoprotein I (nicked) (P02749 20-345): as the sequence (P02749 20-345) above

Substance | Kd [1] | koff [2] | kon [2]
β2-glycoprotein I (nicked) (from UniProt P02749) | 370 nM |  | 
tissue-type plasminogen activator (enzyme) |  | 0.00619 s⁻¹ | 113000 M⁻¹ s⁻¹
